Results reported in publication PMC5673894.
Positions count from the first letter of the chain named. Numbers in names are those of the source. Values belong to the binder of their own block, whether it stands above or below them.

Target: recombinant histone H3K4me3, P68431
Assay: co-immunoprecipitation with anti-H3K4me3 antibodies, quantified anti-GFP immunoblot
Details: chain shown with the change, 0.3-M NaCl extracts of XP-C fibroblasts, recombinant H3K4me3 2 µg, n = 3, read off a plot

percent of parent (P = 0.0087 vs WT): 55 % WT
B3: wild-type XPC-GFP fusion, Q01831 D748K (protein)
chain: MARKRAAGGEPRGRELRSQKSKAKSKARREEEEEDAFEDEKPPKKSLLSKVSQGKRKRGCSHPGGSADGPAKKKVAKVTVKSENLKVIKDEALSDGDDLRDFPSDLKKAHHLKRGATMNEDSNEEEEESENDWEEVEELSEPVLGDVRESTAFSRSLLPVKPVEIEIETPEQAKTRERSEKIKLEFETYLRRAMKRFNKGVHEDTHKVHLLCLLANGFYRNNICSQPDLHAIGLSIIPARFTRVLPRDVDTYYLSNLVKWFIGTFTVNAELSASEQDNLQTTLERRFAIYSARDDEELVHIFLLILRALQLLTRLVLSLQPIPLKSATAKGKKPSKERLTADPGGSSETSSQVLENHTKPKTSKGTKQEETFAKGTCRPSAKGKRNKGGRKKRSKPSSSEEDEGPGDKQEKATQRRPHGRERRVASRVSYKEESGSDEAGSGSDFELSSGEASDPSDEDSEPGPPKQRKAPAPQRTKAGSKSASRTHRGSHRKDPSLPAASSSSSSSKRGKKMCSDGEKAEKRSIAGIDQWLEVFCEQEEKWVCVDCVHGVVGQPLTCYKYATKPMTYVVGIDSDGWVRDVTQRYDPVWMTVTRKCRVDAEWWAETLRPYQSPFMDREKKEDLEFQAKHMDQPLPTAIGLYKNHPLYALKRHLLKYEAIYPETAAILGYCRGEAVYSRDCVHTLHSRDTWLKKARVVRLGEVPYKMVKGFSNRARKARLAEPQLREENDLGLFGYWQTEEYQPPVAVKGKVPRNEFGNVYLFLPSMMPIGCVQLNLPNLHRVARKLDIDCVQAITGFDFHGGYSHPVTDGYIVCEEFKDVLLTAWENEQAVIERKEKEKKEKRALGNWKLLAKGLLIRERLKRRYGPKSEAAAPHTDAGGGLSSDEEEGTSSQAEAARILAASWPQNREDEEKQKLKGGPKKTKREKKAAASHLFPFEQL

percent of parent: 85 % WT
B4: wild-type XPC-GFP fusion, Q01831 E755K (protein)
chain: B3 chain with K748D, E755K

More lines, now with the values behind:

B1: wild-type XPC-GFP fusion, Q01831 W690S (protein)
chain: B3 chain with W690S, K748D
percent of parent: 72 % WT

B2: wild-type XPC-GFP fusion, Q01831 D748K; E755K (protein)
chain: B3 chain with E755K
percent of parent (P = 0.0147 vs WT): 46 % WT
